Measurements: US20110045008A1 (NEW YORK UNIVERSITY, published 2011)

B2: platelet GPIIIa (integrin beta3) on platelets (receptor, human, UniProt P05106 27-788, looked up)
chain: GPNICTTRGVSSCQQCLAVSPMCAWCSDEALPLGSPRCDLKENLLKDNCAPESIEFPVSEARVLEDRPLSDKGSGDSSQVTQVSPQRIALRLRPDDSKNFSIQVRQVEDYPVDIYYLMDLSYSMKDDLWSIQNLGTKLATQMRKLTSNLRIGFGAFVDKPVSPYMYISPPEALENPCYDMKTTCLPMFGYKHVLTLTDQVTRFNEEVKKQSVSRNRDAPEGGFDAIMQATVCDEKIGWRNDASHLLVFTTDAKTHIALDGRLAGIVQPNDGQCHVGSDNHYSASTTMDYPSLGLMTEKLSQKNINLIFAVTENVVNLYQNYSELIPGTTVGVLSMDSSNVLQLIVDAYGKIRSKVELEVRDLPEELSLSFNATCLNNEVIPGLKSCMGLKIGDTVSFSIEAKVRGCPQEKEKSFTIKPVGFKDSLIVQVTFDCDCACQAQAEPNSHRCNNGNGTFECGVCRCGPGWLGSQCECSEEDYRPSQQDECSPREGQPVCSQRGECLCGQCVCHSSDFGKITGKYCECDDFSCVRYKGEMCSGHGQCSCGDCLCDSDWTGYYCNCTTRTDTCMSSNGLLCSGRGKCECGSCVCIQPGSYGDTCEKCPTCPDACTFKKECVECKKFDRGALHDENTCNRYCRDEIESVKELKDTGKDAVNCTYKNEDDCVVRFQYYEDSSGKSILYVVEEPECPKGPDILVVLLSVMGAILLIGLAALLIWKLLITIHDRKEFAKFEEERARAKWDTANNPLYKEATSTFTNITYRGT
notes: whole, on cells; On platelets GPIIIa stands in the GPIIb-IIIa complex; also called platelet GPIIIa(49-66); platelet integrin GPIIIa

Columns and labels:
[1] = target: B2; test: cell-based or functional assay
[2] = target: T1, C-terminal truncated 35S-ADAMTS-18 (AD-CTD) (Homo sapiens (Human), UniProt Q8TE60 48-1064, 35S methionine); test: 35S-labelled protein on gel filtered platelets, overnight at 4 C
T1 construct: also called C-terminal deficient ADAMTS-18
T1 sequence: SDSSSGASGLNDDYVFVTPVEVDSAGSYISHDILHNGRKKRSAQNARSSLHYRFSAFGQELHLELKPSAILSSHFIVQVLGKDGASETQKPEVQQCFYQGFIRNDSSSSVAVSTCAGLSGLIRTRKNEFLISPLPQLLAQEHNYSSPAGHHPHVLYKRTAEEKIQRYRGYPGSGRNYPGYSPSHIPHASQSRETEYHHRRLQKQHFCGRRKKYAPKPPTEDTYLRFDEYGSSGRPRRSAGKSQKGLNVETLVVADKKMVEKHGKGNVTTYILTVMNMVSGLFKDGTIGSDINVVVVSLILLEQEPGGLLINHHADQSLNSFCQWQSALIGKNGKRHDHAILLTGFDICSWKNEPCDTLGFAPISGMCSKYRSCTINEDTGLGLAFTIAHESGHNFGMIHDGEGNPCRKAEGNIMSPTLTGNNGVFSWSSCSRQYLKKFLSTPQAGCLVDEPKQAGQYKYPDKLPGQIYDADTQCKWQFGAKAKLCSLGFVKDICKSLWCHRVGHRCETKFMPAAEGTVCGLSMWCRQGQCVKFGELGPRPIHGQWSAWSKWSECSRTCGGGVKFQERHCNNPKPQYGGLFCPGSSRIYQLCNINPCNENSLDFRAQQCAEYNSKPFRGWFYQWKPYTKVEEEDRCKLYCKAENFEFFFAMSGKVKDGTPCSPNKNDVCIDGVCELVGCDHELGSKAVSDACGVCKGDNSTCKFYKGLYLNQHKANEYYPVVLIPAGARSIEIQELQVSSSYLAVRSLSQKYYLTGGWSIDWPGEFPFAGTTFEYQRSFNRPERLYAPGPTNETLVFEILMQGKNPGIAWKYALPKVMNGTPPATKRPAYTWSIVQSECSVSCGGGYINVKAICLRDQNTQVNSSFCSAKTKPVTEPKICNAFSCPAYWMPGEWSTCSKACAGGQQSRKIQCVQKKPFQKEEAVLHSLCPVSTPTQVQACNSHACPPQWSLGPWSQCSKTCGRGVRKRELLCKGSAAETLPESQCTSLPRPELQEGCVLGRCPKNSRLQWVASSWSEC
Experimental: FIGS. 14A-C show the effect of ADAMTS-18 on oxidative platelet fragmentation and binding to platelets. […] Gel-filtered platelets were treated with Biotin-peptide (bp) as well as bp+streptavidin (str) and scrambled Biotinylated ADAMTS-18 peptide (scp) to induce integrin clustering, n=6. Platelet fragmentation was assessed by FACS as described in the examples section. […] CT (control IgG), Ab (patient IgG). 18-mer biotin-peptide was incubated with an anti-Biotin Ab, 1:200 dilution (gray bars) or irrelevant IgG white bars, n=6. Oxidation was assessed. […] Ctl refers to ³⁵S ribosomal-translation of luciferase. AD-CTD refers to ³⁵S-ribosomal translation of ADAMTS-18 with absent C-terminal 157 amino acids (13% deleted). There is an absence of binding with C-terminal deficient ADAMTS-18. 18 mer refers to 10 μM non-radioactive 18 mer peptide added with the ³⁵S-ADAMTS-18 incubation. Binding with C-terminal 18 mer peptide is inhibited. The amino acid sequence for the 18-mer peptide is (SEQ ID NO: 8): […]

B1: ADAMTS-18 C-terminal 385 amino acid fragment (AD-18F) (ligand)
chain: NETLVFEILMQGKNPGIAWKYALPKVMNGTPPATKRPAYTWSIVQSECSVSCGGGYINVKAICLRDQNTQVNSSFCSAKTKPVTEPKICNAFSCPAYWMPGEWSTCSKACAGGQQSRKIQCVQKKPFQKEEAVLHSLCPVSTPTQVQACNSHACPPQWSLGPWSQCSKTCGRGVRKRELLCKGSAAETLPESQCTSLPRPELQEGCVLGRCPKNSRLQWVASSWSECSATCGLGVRKREMKCSEKGFQGKLITFPERRCRNIKKPNLDLEETCNRRACPAHPVYNMVAGWYSLPWQQCTVTCGGGVQTRSVHCVQQGRPSSSCLLHQKPPVLRACNTNFCPAPEKREDPSCVDFFNWCHLVPQHGVCNHKFYGKQCCKSCTRKI
In the case of B1, the “platelet fragmentation of TFLLRN-activated platelets against platelets without prestimulation” value [1] is reported as about 22 fold.

B2: no binding [2].
